Assay results taken from patent US20230220443A1, “CHARACTERIZATION OF S-ADENOSYL-L-METHIONINE-CONSUMING ENZYMES WITH 1-STEP EZ-MTASE: A UNIVERSAL COUPLED-ASSAY” (ALBERT EINSTEIN COLLEGE OF MEDICINE, priority 2017, published 2023).
Where two headings read alike, the source gives them in different places.

Assays:
deaminase PA3170 = test: Deamination of 5DOA by PA3170; assay type: biochemical, Pseudomonas aeruginosa
Description: FIG. 3A-3C. The reaction catalyzed by deaminase PA3170 and its use as a coupling enzyme for monitoring radical SAM (RS) enzymes activity. (A) The 5′-deoxy-adenosine (5DOA) by-product of radical SAM enzyme reactions is efficiently converted into its inosyl-derivative (5DOI) by the deaminase PA3170. (B) The […] conversion is confirmed by HPLC as these two molecules have distinct retention times. The different spectral signatures between 5DOA and 5DOI (λmax1=259 nm and λmax2=249 nm, respectively) allow continuous monitoring of […] through UV-detection.

GNMT = GNMT (Rattus norvegicus, UniProt P13255); details: cited from earlier work
GsSDMT = biological target: T1, GsSDMT (Galdieria sulphuraria, UniProt M2XPA0); test: GsSDMT inhibition by sinefungin (UV-mode); assay type: biochemical; details: pH=6.80, SAM 763 μM, sarcosine 5 mM, 195 nM GsSDMT; read-out: inhibition constant Ki
T1 sequence (M2XPA0 2-297): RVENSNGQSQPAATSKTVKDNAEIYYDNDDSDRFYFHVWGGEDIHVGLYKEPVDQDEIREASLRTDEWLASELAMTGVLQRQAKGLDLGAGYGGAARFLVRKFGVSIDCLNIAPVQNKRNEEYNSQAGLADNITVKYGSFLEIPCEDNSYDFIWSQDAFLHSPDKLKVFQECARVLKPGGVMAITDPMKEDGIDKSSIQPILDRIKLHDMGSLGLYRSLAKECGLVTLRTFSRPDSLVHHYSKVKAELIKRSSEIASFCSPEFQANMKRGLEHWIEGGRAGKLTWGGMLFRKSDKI
Procedure: Briefly, kinetic parameters were determined at 20° C. in a UV-Star 96-well flat bottom plate (Greiner Bio-One, #655801) by continuous monitoring of absorbance at 263 nm using a SpectraMax M5 instrument (Molecular Devices). The 100-μL reaction mixtures from a set of two rows contained 100 mM phosphate buffer pH=6.80, 1 mM βME, 5% glycerol, […] MgCl2, 4 μM coupling deaminase TM0936, 195 nM GsSDMT, saturating level of SAM (763 μM) and various sinefungin concentrations (0.8-244 μM). In the first row, the sarcosine acceptor was omitted to account for background signal (i.e. natural catabolism of sinefungin and SAM decomposition). The methyltransfer reactions started upon addition of sarcosine (5 mM saturating final concentration). Volumes (60-μL) were transferred onto plate and absorbance signals were recorded. The initial rates of the reactions were corrected using data from first row experiments and plotted against sinefungin concentrations. Fit to the following Eq. 7 provided corresponding inhibition constant (Ki):
where V and V0 are the initial velocity with and without inhibitor, respectively. The Michelis constant for SAM substrate is depicted as Km and [SAM] is the concentration of this same molecule. The inhibition constant for sinefungin is represented by Ki and [SIN] is the concentration of this inhibitor. The parameter γ is the Hill coefficient. […]

NcDIM-5 [1] = biological target: T2, NcDIM-5 (Neurospora crassa, UniProt Q8X225); test: Reported (literature) NcDIM-5 kinetics; assay type: biochemical; details: from reported values lit. (53)
T2 construct: GST; made in house
T2 sequence (Q8X225 1-331): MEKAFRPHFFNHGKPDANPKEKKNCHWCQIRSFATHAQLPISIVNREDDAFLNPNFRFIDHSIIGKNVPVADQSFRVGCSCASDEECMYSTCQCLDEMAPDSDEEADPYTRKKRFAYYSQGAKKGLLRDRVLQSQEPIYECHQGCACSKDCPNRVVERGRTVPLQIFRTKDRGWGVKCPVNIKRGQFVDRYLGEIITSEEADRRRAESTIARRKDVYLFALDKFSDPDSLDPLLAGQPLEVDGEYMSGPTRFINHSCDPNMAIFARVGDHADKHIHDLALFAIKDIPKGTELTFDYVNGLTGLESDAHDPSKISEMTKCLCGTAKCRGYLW

NcDIM-5 [2] = biological target: T2, NcDIM-5; details: literature values; cited from earlier work
CePRMT5 [3] = biological target: T3, CePRMT5 (Caenorhabditis elegans, UniProt P46580); test: 1-Step EZ-MTase UV-based coupled assay, CePRMT5 kinetics; assay type: biochemical; details: pH=7.60, co-substrate saturating, 4 μM TM0936; 263 nm (282 nm for 8-aza-SAM)
T3 construct: made in house
T3 sequence (P46580 1-734): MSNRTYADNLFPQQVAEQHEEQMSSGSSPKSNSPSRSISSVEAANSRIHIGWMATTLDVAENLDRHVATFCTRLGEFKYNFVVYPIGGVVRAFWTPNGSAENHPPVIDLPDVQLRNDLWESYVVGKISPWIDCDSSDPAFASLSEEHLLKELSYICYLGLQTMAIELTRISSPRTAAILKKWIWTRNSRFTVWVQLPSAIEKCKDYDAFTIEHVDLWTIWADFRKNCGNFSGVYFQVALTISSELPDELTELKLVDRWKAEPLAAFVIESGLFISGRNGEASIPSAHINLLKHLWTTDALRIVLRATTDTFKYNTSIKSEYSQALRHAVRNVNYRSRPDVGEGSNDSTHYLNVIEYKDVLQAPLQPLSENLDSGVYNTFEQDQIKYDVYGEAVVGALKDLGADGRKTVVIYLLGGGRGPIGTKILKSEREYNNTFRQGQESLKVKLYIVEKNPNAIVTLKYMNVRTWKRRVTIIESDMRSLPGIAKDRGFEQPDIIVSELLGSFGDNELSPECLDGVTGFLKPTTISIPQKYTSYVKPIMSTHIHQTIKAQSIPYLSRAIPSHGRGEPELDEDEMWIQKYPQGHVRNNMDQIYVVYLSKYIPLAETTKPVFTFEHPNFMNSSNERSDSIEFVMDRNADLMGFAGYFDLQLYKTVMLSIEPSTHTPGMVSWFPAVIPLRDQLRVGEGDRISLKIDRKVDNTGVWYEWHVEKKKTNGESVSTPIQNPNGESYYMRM
Procedure: The 250-μL reaction mixtures from a same row contained 50 mM phosphate buffer pH=7.60, 1 mM βME, 10% glycerol, 4 μM coupling deaminase TM0936, 300 nM CePRMT5 and various peptide concentrations (5-180 μM; in the first well, peptide acceptor was omitted to account for background signal—natural decomposition of SAM). The methyltransfer reactions started upon addition of SAM (25 μM saturating final concentration) and absorbance was recorded.
The 250-μL reaction mixtures from a same row contained 50 mM phosphate buffer pH=7.60, 1 mM βME, 10% glycerol, 4 μM coupling deaminase TM0936, 300 nM CePRMT5 and various SAM concentrations (2.35-47.0 μM). […] Initial rates were first corrected for background signal, then plotted against SAM concentrations and fitted to the Morrison kinetic model to yield corresponding kinetic parameters.
(§1) Kinetic behavior for 8-aza-SAM against MTases (acceptor sat.)—Briefly, kinetic parameters were determined at 20° C. in a UV-Star 96-well flat bottom plate (Greiner Bio-One, #655801) by continuous monitoring of absorbance at 282 nm using a SpectraMax M5 instrument (Molecular Devices). As for SAM experiments, the measurements consisted of two experimental subsets: MTase reactions (both 8-aza-SAM and acceptor added) and MTase blanks (8-aza-SAM was added without acceptor to account for natural 8-aza-SAM decomposition). The 250-μL (60-μL) reaction mixtures from a same row contained 50 mM phosphate buffer pH=7.60 (7.80), 1 mM βME, 10% glycerol (5% glycerol, 100 μM MgCl2), 4 μM coupling deaminase TM0936, either 1.5 μM CePRMT5 or 402 nM TbPRMT7 (or 610 nM GsSDMT) and various 8-aza-SAM concentrations. […] Initial rates were first corrected for background signal, then plotted against 8-aza-SAM concentrations and fitted to the Michaelis-Menten equation to yield corresponding kinetic parameters.

TbPRMT7 [4] = biological target: T4, TbPRMT7 (Trypanosoma brucei brucei, UniProt Q582G4); test: 1-Step EZ-MTase UV-based coupled assay, TbPRMT7 kinetics (incl. ionic strength); assay type: biochemical; details: pH=7.60, 25 mM phosphate, co-substrate saturating
T4 construct: made in house
Procedure: Briefly, the 250-μL reaction mixtures from a same row contained 25 mM phosphate buffer pH=7.60, 1 mM βME, 10% glycerol, 4 μM coupling deaminase TM0936, 1.0 μM TbPRMT7 and various peptide concentrations (16.6-243.3 μM; in the first well, peptide acceptor was omitted to account for background signal—natural decomposition of SAM). Reactions started upon addition of SAM (25.8 μM saturating final concentration) and absorbance was recorded. […] Fit to the Michaelis-Menten model (Eq. 5) provided corresponding kinetic parameters:
Briefly, the measurements consisted of two experimental subsets: MTase reactions (both SAM and peptide added) and MTase blanks (SAM was added without peptide to account for natural SAM decomposition). The 250-μL reaction mixtures from a same row contained 25 mM phosphate buffer pH=7.60, 1 mM βME, 10% glycerol, 4 μM coupling deaminase TM0936, 402 nM TbPRMT7 and various SAM concentrations (1.53-20.0 μM). […] Initial rates were first corrected for background signal, then plotted against SAM concentrations and fitted to the Morrison kinetic model to yield corresponding kinetic parameters.
as §1, with “parameters. The kinetic data from CePRMT5 were fit to the following Eq. 6 to reflect substrate inhibition observed at higher 8-aza-SAM concentration:” for “parameters.”
Experiments were conducted following TbPRMT7 protocol above. Briefly, the 250-μL reaction mixtures from a same row contained either 25, 50, 75 or 100 mM phosphate buffer pH=7.60, 1 mM βME, 10% glycerol, 4 μM coupling deaminase TM0936, 1.0 μM TbPRMT7 and various peptide concentrations (16.6-243.3 μM; in the first well, peptide acceptor was omitted to account for background signal—natural decomposition of SAM). Reactions started upon addition of SAM (25.8 μM saturating final concentration) and absorbance was recorded. […] The four fits to the Michaelis-Menten equation (kcat fixed at 29 h^−1) provided corresponding Km values and established impact of ionic strength onto this kinetic parameter.

TbPRMT7 [5] = biological target: T4, TbPRMT7; test: Fluorescence-based coupled assay, TbPRMT7 with 8-aza-SAM cofactor; assay type: biochemical; details: 8-aza-SAM 25.0 μM, pH=7.60, fluorescence-mode
Procedure: Briefly, the 250-μL reaction mixtures from a same row contained 25 mM phosphate buffer pH=7.60, 1 mM βME, 10% glycerol, 4 μM coupling deaminase TM0936, 805.2 nM TbPRMT7 and various peptide concentrations (0-144.55 μM. The first well contained only 8-aza-SAM without any coupling enzyme, nor methyltransferase; in the second well, peptide acceptor was omitted to account for background signal—natural decomposition of 8-aza-SAM). […]

CePRMT5 [6] = biological target: T3, CePRMT5; details: lit. (46); cited from earlier work

T4 sequence (Q582G4 whole entry): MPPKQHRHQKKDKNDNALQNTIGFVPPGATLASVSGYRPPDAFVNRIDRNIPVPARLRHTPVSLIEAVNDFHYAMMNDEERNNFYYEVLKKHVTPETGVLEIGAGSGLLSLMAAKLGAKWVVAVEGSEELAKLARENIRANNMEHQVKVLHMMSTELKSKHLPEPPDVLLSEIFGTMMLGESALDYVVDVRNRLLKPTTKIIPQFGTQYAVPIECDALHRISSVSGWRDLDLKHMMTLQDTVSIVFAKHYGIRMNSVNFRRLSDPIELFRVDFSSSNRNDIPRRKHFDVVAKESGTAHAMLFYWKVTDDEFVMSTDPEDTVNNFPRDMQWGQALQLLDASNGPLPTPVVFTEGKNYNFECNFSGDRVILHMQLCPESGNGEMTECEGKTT
Chain of GNMT (P13255 whole entry): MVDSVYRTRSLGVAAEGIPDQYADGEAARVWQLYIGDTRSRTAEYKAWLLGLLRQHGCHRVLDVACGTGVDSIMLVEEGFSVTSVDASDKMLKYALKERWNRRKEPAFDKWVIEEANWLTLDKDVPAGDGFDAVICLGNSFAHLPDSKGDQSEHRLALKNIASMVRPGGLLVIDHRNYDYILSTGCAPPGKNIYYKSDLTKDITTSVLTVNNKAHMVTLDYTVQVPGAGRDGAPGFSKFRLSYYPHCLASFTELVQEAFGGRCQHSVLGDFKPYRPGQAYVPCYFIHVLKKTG

## C[C@H]1O[C@@H](n2cnc3c(N)ncnc32)[C@H](O)[C@@H]1O [5DOA, 5′-deoxy-adenosine]
Deaminase PA3170
  conversion into 5DOI by PA3170: full conversion

## NCC(=O)O [glycine]
GNMT
  Km: 130 µM

## Nc1ncnc2c1ncn2[C@@H]1O[C@H](C[C@@H](N)CC[C@H](N)C(=O)O)[C@@H](O)[C@H]1O [sinefungin]
GsSDMT
  Ki: 1800 ± 400 nM

## H3(1-20): H3(1-20) peptide harboring a N-terminal biotinylation, from previous report
NcDIM-5 [1]
  overall catalytic efficiency: 19 µM⁻¹ h⁻¹
NcDIM-5 [2]
  Km: 7.4 µM
  kcat: 138 h⁻¹

## H4(1-20): H4(1-20) peptide substrate for CePRMT and TbPRMT7, purchased from GenScript
CePRMT5 [3]
  Km: 26 ± 2 µM
  kcat: 32.9 ± 0.8 h⁻¹
TbPRMT7 [4]
  Km: 39 ± 3 µM
  kcat: 28.2 ± 0.7 h⁻¹
TbPRMT7 [5]
  Km: 71 ± 8 µM
  kcat: 39 ± 2 h⁻¹
CePRMT5 [6]
  Km: 54 ± 4 µM
  kcat: 28.6 ± 0.7 h⁻¹
